Where “and” joins values, the source holds several entries; their conditions need not be identical. Equal values may be shown once. One block for each binder: values may come before it.
How the values were obtained:
[1] = molecular target: T1, ALK1 ECD (Homo sapiens, UniProt P37023); assay: SPR
[2] = molecular target: T2, BMPR-II ECD (Homo sapiens, UniProt Q13873); assay: BLI
T2 chain: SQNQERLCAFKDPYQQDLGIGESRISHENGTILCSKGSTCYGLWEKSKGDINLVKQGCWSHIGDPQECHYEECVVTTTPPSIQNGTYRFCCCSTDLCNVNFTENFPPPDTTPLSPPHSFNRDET

[3] = molecular target: T1, ALK1 ECD; assay: BLI
[4] = molecular target: ACTR-IIA ECD (Homo sapiens, UniProt P27037); assay: BLI
Sequence of ACTR-IIA ECD (P27037 20-135): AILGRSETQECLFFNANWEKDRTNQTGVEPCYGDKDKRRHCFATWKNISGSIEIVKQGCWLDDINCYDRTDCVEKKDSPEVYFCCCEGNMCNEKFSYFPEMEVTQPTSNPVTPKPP

[5] = molecular target: T3, ALK5 ECD (Homo sapiens, UniProt P36897); assay: BLI
T3 chain: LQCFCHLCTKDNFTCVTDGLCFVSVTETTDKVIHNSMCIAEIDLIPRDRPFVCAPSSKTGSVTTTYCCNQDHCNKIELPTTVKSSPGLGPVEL

[6] = molecular target: T4, ACTR-IIB ECD (Homo sapiens, UniProt Q13705); assay: BLI
T4 chain: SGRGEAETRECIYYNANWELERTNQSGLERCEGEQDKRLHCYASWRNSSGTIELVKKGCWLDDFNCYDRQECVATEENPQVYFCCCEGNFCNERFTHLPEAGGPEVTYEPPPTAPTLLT

[7] = molecular target: T5, ALK6 ECD (Homo sapiens, UniProt O00238); assay: BLI
T5 chain: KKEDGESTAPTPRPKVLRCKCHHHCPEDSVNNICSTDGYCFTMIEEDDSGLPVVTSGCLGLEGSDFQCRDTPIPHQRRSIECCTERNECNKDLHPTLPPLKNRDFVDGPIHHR

[8] = molecular target: T6, ALK2/BMPR-II ECD (Homo sapiens, UniProt Q04771); assay: BLI
T6 chain 1: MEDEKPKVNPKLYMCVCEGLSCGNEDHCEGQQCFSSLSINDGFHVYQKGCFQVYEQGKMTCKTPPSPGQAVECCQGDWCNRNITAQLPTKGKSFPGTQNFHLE
T6 chain 2: T2 chain

[9] = molecular target: T7, ALK2/ACTR-IIB ECD (Homo sapiens, UniProt Q04771); assay: BLI
T7 chain 1: T6 chain 1
T7 chain 2: T4 chain

[10] = molecular target: T8, ALK2 ECD (Homo sapiens, UniProt Q04771); assay: BLI
T8 chain: T6 chain 1

[11] = molecular target: T9, ALK3 ECD (Homo sapiens, UniProt P36894); assay: BLI
T9 chain: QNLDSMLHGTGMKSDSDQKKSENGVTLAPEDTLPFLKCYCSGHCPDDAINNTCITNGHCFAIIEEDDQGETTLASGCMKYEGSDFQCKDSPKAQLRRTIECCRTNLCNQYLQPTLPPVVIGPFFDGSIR

T1 sequence (P37023 22-118): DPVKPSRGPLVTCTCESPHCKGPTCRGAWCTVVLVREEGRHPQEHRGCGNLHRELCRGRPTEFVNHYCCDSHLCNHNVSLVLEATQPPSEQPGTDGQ

Kd [1]: 0.0134 nM
Kd [2]: 0.8 nM
Kd [3]: 0.2 nM
Kd [4]: 1.7 nM
Kd [5]: 51 nM
Kd [6]: 1.4 nM
B1: BMP-9 (protein)
chain: SAGAGSHCQKTSLRVNFEDIGWDSWIIAPKEYEAYECKGGCFFPLADDVTPTKHAIVQTLVHLKFPTKVGKACCVPTKLSPISVLYKDDMGVPTLKYHYEGMSVAECGCR

Kd [2]: 5.5 nM
Kd [3]: 23.1 nM
Kd [4]: 1.3 nM
Kd [5]: 22.6 nM
Kd [6]: 7.1 nM
Kd [7]: 15 nM
B2: BMP-7 (protein)
chain: STGSKQRSQNRSKTPKNQEALRMANVAENSSSDQRQACKKHELYVSFRDLGWQDWIIAPEGYAAYYCEGECAFPLNSYMNATNHAIVQTLVHFINPETVPKPCCAPTQLNAISVLYFDDSSNVILKKYRNMVVRACGCH

Kd [2]: 56 nM
Kd [8]: 55.8 nM and 90.7 nM
Kd [9]: 103 nM and 88.7 nM
Kd [3]: 55.4 nM
Kd [4]: 21.4 nM
Kd [5]: 21.9 nM
Kd [6]: 26 nM
Kd [10]: 10.5 nM
Kd [7]: 3.1 nM
B3: BMP-4 (protein)
chain: SPKHHSQRARKKNKNCRRHSLYVDFSDVGWNDWIVAPPGYQAFYCHGDCPFPLADHLNSTNHAIVQTLVNSVNSSIPKACCVPTELSAISMLYLDEYDKVVLKNYQEMVVEGCGCR

Kd [2]: 5.4 nM
Kd [3]: 13 nM
Kd [5]: 5.8 nM
Kd [11]: 0.21 nM
Kd [7]: 0.5 nM
B4: BMP-2 (protein)
chain: QAKHKQRKRLKSSCKRHPLYVDFSDVGWNDWIVAPPGYHAFYCHGECPFPLADHLNSTNHAIVQTLVNSVNSKIPKACCVPTELSAISMLYLDENEKVVLKNYQDMVVEGCGCR

— article PMC7614001 (2022)
